In article PMC2653023, “Improving the functional expression of a Bacillus licheniformis laccase by random and site-directed mutagenesis” (BMC Biotechnology, 2009):

B1: CotA (Bacillus licheniformis DSM 13 = ATCC 14580) (protein)
chain: MKLEKFVDRLPIPQVLQPQSKSKEMTYYEVTMKEFQQQLHRDLPPTRLFGYNGVYPGPTFEVQKHEKVAVKWLNKLPDRHFLPVDHTLHDDGHHEHEVKTVVHLHGGCTPADSDGYPEAWYTKDFHAKGPFFEREVYEYPNEQDATALWYHDHAMAITRLNVYAGLVGLYFIRDREERSLNLPKGEYEIPLLIQDKSFHEDGSLFYPRQPDNPSPDLPDPSIVPAFCGDTILVNGKVWPFAELEPRKYRFRILNASNTRIFELYFDHDITCHQIGTDGGLLQHPVKVNELVIAPAERCDIIVDFSRAEGKTVTLKKRIGCGGQDADPDTDADIMQFRISKPLKQKDTSSLPRILRKRPFYRRHKINALRNLSLGAAVDQYGRPVLLLNNTKWHEPVTETPALGSTEIWSIINAGRAIHPIHLHLVQFMILDHRPFDIERYQENGELVFTGPAVPPAPNEKGLKDTVKVPPGSVTRIIATFAPYSGRYVWHCHILEHEDYDMMRPLEVTDVRHQ
notes: untagged full-length CotA in pET22b+ (NdeI/EcoRI, own stop codon), recombinant from E. coli BL21(DE3), heat step and Q-Sepharose, ~65 kDa; primer-encoded N-terminus MKLEKFVDR, C-terminus EVTDVRHQ
B2: CotA (Bacillus licheniformis DSM 13 = ATCC 14580; K316N) (protein)
chain: MKLEKFVDRLPIPQVLQPQSKSKEMTYYEVTMKEFQQQLHRDLPPTRLFGYNGVYPGPTFEVQKHEKVAVKWLNKLPDRHFLPVDHTLHDDGHHEHEVKTVVHLHGGCTPADSDGYPEAWYTKDFHAKGPFFEREVYEYPNEQDATALWYHDHAMAITRLNVYAGLVGLYFIRDREERSLNLPKGEYEIPLLIQDKSFHEDGSLFYPRQPDNPSPDLPDPSIVPAFCGDTILVNGKVWPFAELEPRKYRFRILNASNTRIFELYFDHDITCHQIGTDGGLLQHPVKVNELVIAPAERCDIIVDFSRAEGKTVTLKNRIGCGGQDADPDTDADIMQFRISKPLKQKDTSSLPRILRKRPFYRRHKINALRNLSLGAAVDQYGRPVLLLNNTKWHEPVTETPALGSTEIWSIINAGRAIHPIHLHLVQFMILDHRPFDIERYQENGELVFTGPAVPPAPNEKGLKDTVKVPPGSVTRIIATFAPYSGRYVWHCHILEHEDYDMMRPLEVTDVRHQ
notes: as for B1
B3: CotA (Bacillus licheniformis DSM 13 = ATCC 14580; D500G) (protein)
chain: MKLEKFVDRLPIPQVLQPQSKSKEMTYYEVTMKEFQQQLHRDLPPTRLFGYNGVYPGPTFEVQKHEKVAVKWLNKLPDRHFLPVDHTLHDDGHHEHEVKTVVHLHGGCTPADSDGYPEAWYTKDFHAKGPFFEREVYEYPNEQDATALWYHDHAMAITRLNVYAGLVGLYFIRDREERSLNLPKGEYEIPLLIQDKSFHEDGSLFYPRQPDNPSPDLPDPSIVPAFCGDTILVNGKVWPFAELEPRKYRFRILNASNTRIFELYFDHDITCHQIGTDGGLLQHPVKVNELVIAPAERCDIIVDFSRAEGKTVTLKKRIGCGGQDADPDTDADIMQFRISKPLKQKDTSSLPRILRKRPFYRRHKINALRNLSLGAAVDQYGRPVLLLNNTKWHEPVTETPALGSTEIWSIINAGRAIHPIHLHLVQFMILDHRPFDIERYQENGELVFTGPAVPPAPNEKGLKDTVKVPPGSVTRIIATFAPYSGRYVWHCHILEHEDYGMMRPLEVTDVRHQ
notes: as for B1
B4: CotA (Bacillus licheniformis DSM 13 = ATCC 14580; D500G/K316N) (protein)
chain: MKLEKFVDRLPIPQVLQPQSKSKEMTYYEVTMKEFQQQLHRDLPPTRLFGYNGVYPGPTFEVQKHEKVAVKWLNKLPDRHFLPVDHTLHDDGHHEHEVKTVVHLHGGCTPADSDGYPEAWYTKDFHAKGPFFEREVYEYPNEQDATALWYHDHAMAITRLNVYAGLVGLYFIRDREERSLNLPKGEYEIPLLIQDKSFHEDGSLFYPRQPDNPSPDLPDPSIVPAFCGDTILVNGKVWPFAELEPRKYRFRILNASNTRIFELYFDHDITCHQIGTDGGLLQHPVKVNELVIAPAERCDIIVDFSRAEGKTVTLKNRIGCGGQDADPDTDADIMQFRISKPLKQKDTSSLPRILRKRPFYRRHKINALRNLSLGAAVDQYGRPVLLLNNTKWHEPVTETPALGSTEIWSIINAGRAIHPIHLHLVQFMILDHRPFDIERYQENGELVFTGPAVPPAPNEKGLKDTVKVPPGSVTRIIATFAPYSGRYVWHCHILEHEDYGMMRPLEVTDVRHQ
notes: as for B1

Each protein was assayed on CCn1c(=NN=c2sc3cc(S(=O)(=O)O)ccc3n2CC)sc2cc(S(=O)(=O)O)ccc21 (assay: purified protein). Settings: 0.1 M citrate/phosphate buffer, pH 4.0, room temperature, 5-500 μM ABTS, co-substrate O2, free enzyme.
Assay type: biochemical, Bacillus licheniformis

| Protein | Km |
| --- | --- |
| B1 | 6.5 ± 0.2 µM |
| B2 | 10.0 ± 0.3 µM |
| B3 | 9.5 ± 0.2 µM |
| B4 | 8.4 ± 0.2 µM |
